Laboratory results from patent US12103951B2, “Use of CGRP receptor antagonists in neuroprotection and neurological disorders” (priority 2016, dated 2024).
Read-outs that look alike come from different tables or passages of the source. Marks after values point to notes of the source that are not given here.

Key:
[1] = test system: retinal astrocytes; assay: Rat laser glaucoma model: total number of GFAP-immunoreactive cells (retinal astrocytes); assay type: in vivo, Wistar rats; conditions: between the groups (CGRP antagonist vs vehicle)
Experimental: In this study, Wistar rats (n=12) were used for the experiments. The neuroprotective properties of compounds were investigated in a rat laser model of glaucoma. Rats were divided into two groups of six rats each. One group served as a placebo control receiving vehicle (NaCl) injections, and the other was treated with a peptide CGRP receptor antagonist (SEQ ID NO: 1). For all 12 rats, the contralateral, untreated eye served as a naïve undiseased control. The vehicle control and test compound (20 mg/kg) were administered systemically (IP) daily for the whole follow-up period of two weeks. The animals were sacrificed using transcardial perfusion. The retinal whole-mounts were then immuno-stained against retinal ganglion cell (RGC) marker Brn3a and astrocytic marker GFAP (glial fibrillary acidic protein). The number of Brn3a positive profiles was manually counted from retinal images taken from central and peripheral parts of retina. The total number of GFAP-immunoreactive cells (retinal astrocytes) was estimated using stereology. […]
1. Quantification of Brn3a and GFAP-positive cells from retinal whole mounts manually and using stereology.
Retinal whole mounts were immuno-stained against RGC (Brn3a) and astrocytic (GFAP) antibodies and the number of cells was quantified either manually (Brn3a) or as previously described (Kalesnykas et al., 2008). […]

[2] = test system: Total Cholesterol, Triglycerides, Low-density lipoprotein and High-density lipoprotein; assay type: in vivo, Sprague Dawley rats; parameters: HDL / LDL: unit not given here; conditions: for HDL / LDL / T. Chol / Trig: mean, n = 5; for effect on LDL levels in rats (words): normal rats, s.c. daily 14 days, especially male rats, every test dose 100 to 1000 mcg/kg
Experimental: Sprague Dawley rats were administered the CGRP antagonist daily via the subcutaneous route for a period of 14 days, resulting in the surprising effect of LDL lowering. Fifty six animals (36 males and 20 females) were distributed into four groups (consisting each of 5 males and 5 females per group and 4 extra males each for testing group as backups). The groups were as follows: G1—Control, G2—Low dose—100 mcg/kg, G3—Intermediate dose—300 mcg/kg, G4—High dose—1000 mcg/kg.
Rats from the treatment groups were dosed subcutaneously with CGRP receptor antagonists (SEQ ID NO: 1) reconstituted with normal saline at different dose levels per treatment group for 14 days. Control animals were dosed with the vehicle alone.
The acclimatization period was, at a minimum, 7 days. For the randomization, animals were selected and grouped based on stratified randomization by using body weights one day before dosing (day 0) using an Excel program. The route of administration of the antagonist was by a subcutaneous method. The frequency of the administration was daily for fourteen days. The dose volume was set at 5 ml/kg of body weight. The duration of the treatment was fourteen days with administration occurring approximately at the same time each day.
While preparing the dose formulation, required quantities of test item (i.e. CGRP antagonist) was weighed separately. The required volume of normal saline was added to the test item. A clear solution was obtained after addition of normal saline to test item. The test item was administered subcutaneously at the desired dose level once daily for up to 14 days. Homogeneity of the test item in the vehicle was maintained during administration.
The following observations were recorded: • 1. […] Body Weight • Body weight was recorded on day 1, 7, 11 and 15. • 3. Feed Consumption • Feed consumption was recorded daily and reported weekly. • 4. Blood Collection and Laboratory Investigations • Blood samples for were collected from all animals on day 15. The animals were fasted overnight before blood sampling but allowed access to water ad libitum for hematology and biochemistry. Blood samples were drawn from the retro-orbital plexus using a micro-hematocrit heparinized glass capillary tube. Blood samples were centrifuged (3500 rpm) and after centrifugation plasma was separated for further analysis.
Total Cholesterol, Triglycerides, Low-density lipoprotein and High-density lipoprotein parameters are shown in Tables 4 and 5, for male and female rats, respectively. Data from the LDL analysis is shaded.

[3] = female rats, 100 mcg/kg b.w. s.c. daily 14 days, day 15
[4] = female rats, 300 mcg/kg b.w. s.c. daily 14 days, day 15
[5] = female rats, 1000 mcg/kg b.w. s.c. daily 14 days, day 15
[6] = male rats, 100 mcg/kg b.w. s.c. daily 14 days, day 15
[7] = male rats, 300 mcg/kg b.w. s.c. daily 14 days, day 15
[8] = male rats, 1000 mcg/kg b.w. s.c. daily 14 days, day 15

Question: With “NH2-Ala-Cys-Asp-Thr-Ala-Ala-Cys-Val-Leu-Gly-Arg-Leu-Ser-Gln-Glu-Leu-His-Arg-Leu-Gln-Thr-Tyr-Pro-Arg-Thr-Asn-Val-Gly-Ser-Lys-Ala-Phe-NH2 (H-ACDTAACVLGRLSQELHRLQTYPRTNVGSKAF-NH2; ends and bridges not checked) [SEQ ID NO: 1, peptide CGRP receptor antagonist]” as the substance, how does the “total number of retinal astrocytes” value [1] read?
Answer: The value was “no differences”.

Question: What about the “other non-cholesterol related clinical biochemistry parameters” value ([2]; day 15, vs control, data not shown) of the same substance?
Answer: Its value is “none were significantly different from control”.

Question: What about the HDL [2, 3] of the same substance?
Answer: The HDL was 59.00.

Question: And the LDL [2, 3]?
Answer: The LDL was 11.08.

Question: What about the “T. Chol” value [2, 3] of the same substance?
Answer: Its value is 84.20 mg/dL.

Question: What about the Trig [2, 3] of the same substance?
Answer: The Trig was 70.60 mg/dL.

Question: And the HDL [2, 4]?
Answer: The HDL was 61.60.

Question: And the LDL [2, 4]?
Answer: Its LDL is 12.60.

Question: What about the “T. Chol” value [2, 4] of the same substance?
Answer: The value was 91.00 mg/dL.

Question: And the Trig [2, 4]?
Answer: The Trig was 84.00 mg/dL.

Question: And the HDL [2, 5]?
Answer: The HDL was 54.80.

Question: What about the LDL [2, 5] of the same substance?
Answer: Its LDL is 9.40.

Question: What about the “T. Chol” value [2, 5] of the same substance?
Answer: The value was 80.60 mg/dL.

Question: And the Trig [2, 5]?
Answer: Its Trig is 82.00 mg/dL.

Question: What about the HDL [2, 6] of the same substance?
Answer: The HDL was 51.60.

Question: What about the LDL [2, 6] of the same substance?
Answer: The LDL was 2.96.

Question: And the “T. Chol” value [2, 6]?
Answer: Its value is 78.00 mg/dL.

Question: And the Trig [2, 6]?
Answer: Its Trig is 121.40* mg/dL.

Question: And the HDL [2, 7]?
Answer: Its HDL is 46.00.

Question: What about the LDL [2, 7] of the same substance?
Answer: The LDL was 4.16.

Question: And the “T. Chol” value [2, 7]?
Answer: Its value is 69.60 mg/dL.

Question: And the Trig [2, 7]?
Answer: The Trig was 97.20 mg/dL.

Question: And the HDL [2, 8]?
Answer: Its HDL is 37.00.

Question: What about the LDL [2, 8] of the same substance?
Answer: The LDL was 4.72.

Question: And the “T. Chol” value [2, 8]?
Answer: Its value is 58.20 mg/dL.

Question: What about the Trig [2, 8] of the same substance?
Answer: Its Trig is 82.40 mg/dL.

Question: And the “effect on LDL levels in rats (words)” value [2]?
Answer: Its value is “lowered LDL concentrations in blood”.

Question: And the “effect on LDL levels in rats (words)” value ([2]; listed as CGRP antagonist)?
Answer: The value was “LDL lowering”.

Question: What about the “effect on LDL levels in rats (words)” value ([2]; listed as CGRP receptor antagonist) of the same substance?
Answer: Its value is “substantial LDL lowering”.

Question: And the “effect on LDL levels in rats (words)” value ([2]; listed as peptide CGRP antagonist)?
Answer: Its value is “lowering the LDL levels”.
